# Source: patent US20180057553A1 (UNIVERSITY OF TOKYO, published 2018)
# Legend:
# [1] = target: T1, recombinant human TNF-alpha (Life Technologies) (human, UniProt P01375 77-233); experiment: SPR (Biacore), conjugate amine-coupled to chip, TNF-alpha as analyte
# Source text: (§1) Recombinant human TNF-alpha (Life Technologies) was used as TNF-alpha.
# [2] = target: T1, recombinant human TNF-alpha (Life …); experiment: depletion assay: serially diluted conjugate mixed with human TNF-alpha (100% = 6.2 ng/mL), complex adsorbed on diol Sepharose beads, TNF-alpha remaining in the supernatant measured by ELISA; 2nd experiment
# Description: (§2) The complex of TNF-alpha and the conjugate were then adsorbed using 3 microliters of diol Sepharose beads. Subsequently, TNF-alpha in the supernatant was measured by ELISA, and the percentage of the remaining TNF-alpha was calculated. Experiments were done twice, independently.
# [3] = target: T1, recombinant human TNF-alpha (Life …); experiment: depletion assay: serially diluted conjugate mixed with human TNF-alpha (100% = 6.2 ng/mL), complex adsorbed on diol Sepharose beads, TNF-alpha remaining in the supernatant measured by ELISA; 1st experiment
# Description: as §2
# [4] = target: T1, recombinant human TNF-alpha (Life …); experiment: Biacore SPR: conjugate fixed to the sensor chip via an amino group, recombinant human TNF-alpha as analyte at 0.78-100 nM
# Source text: as §1
# T1 sequence (P01375 77-233 limits assumed): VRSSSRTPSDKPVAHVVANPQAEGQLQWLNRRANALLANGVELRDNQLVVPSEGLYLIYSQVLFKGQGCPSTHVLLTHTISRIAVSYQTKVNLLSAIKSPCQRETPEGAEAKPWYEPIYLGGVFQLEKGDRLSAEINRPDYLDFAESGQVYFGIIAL
binder,measurement,setting,value
"conjugate of the extracellular region of human TNF receptor 2 (TNFR2) and mutant recombinant human intelectin-1 (S165A) (receptor, also called conjugate of TNFR2 and intelectin) LPAQVAFTPYAPEPGSTCRLREYYDQTAQMCCSKCSPGQHAKVFCTKTSDTVCDSCEDSTYTQLWNWVPECLSCGSRCSSDQVETQACTREQNRICTCRPGWYCALSKQEGCRLCAPLRKCRPGFGVARPGTETSDVVCKPCAPGTFSNTTSSTDICRPHQICNVVAIPGNASMDAVCTSTSPTRSMAPGAVHLPQPVSTRSQHTQPTPEPSTAPSTSFLLPMGPSPPAEGSTGDGTDEANTYFKEWTCSSSPSLPRSCKEIKDECPSAFDGLYFLRTENGVIYQTFCDMTSGGGGWTLVASVHENDMRGKCTVGDRWSSQQGSKADYPEGDGNWANYNTFGSAEAATSDDYKNPGYYDIQAKDLGIWHVPNKSPMQHWRNSALLRYRTDTGFLQTLGHNLFGIYQKYPVKYGEGKCWTDNGPVIPVVYDFGDAQKTASYYSPYGQREFTAGFVQFRVFNNERAANALCAGMRVTGCNTEHHCIGGGGYFPEASPQQCGDFSGFDWSGYGTHVGYSSSREITEAAVLLFYR",Kd,[1],0.468 nM
same,kon,[1],1.14e+06 M⁻¹ s⁻¹
same,EC50 (read off the curve),[2],~0.3 µg/mL
same,EC50 (read off the curve),[3],~0.3 µg/mL
same,koff,[4],0.000536 s⁻¹
